Experimental findings from paper doi:10.1101/2024.02.02.578563 are described below.

Holding throughout (experiment): EMSA
The target in data set [1] is rGST hnRNPA2B1 (UniProt P22626 1-353).
Data set [2] deals with rGST APE1 WT (human, UniProt P27695 1-318).
Data set [3] concerns the target rGST APE1 NdeltaN33 (APE1NΔ33) (human, UniProt P27695 34-318, del1-33).

Chain of rGST APE1 WT (P27695 whole entry): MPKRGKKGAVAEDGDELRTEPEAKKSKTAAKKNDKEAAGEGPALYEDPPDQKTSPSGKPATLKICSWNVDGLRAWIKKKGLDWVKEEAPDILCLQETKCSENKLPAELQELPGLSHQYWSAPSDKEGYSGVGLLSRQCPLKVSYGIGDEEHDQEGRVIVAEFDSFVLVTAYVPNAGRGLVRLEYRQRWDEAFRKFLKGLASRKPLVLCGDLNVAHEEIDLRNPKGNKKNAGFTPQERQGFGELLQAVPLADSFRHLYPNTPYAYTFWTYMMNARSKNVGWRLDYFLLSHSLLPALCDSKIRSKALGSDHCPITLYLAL
Chain of rGST hnRNPA2B1 (P22626 whole entry): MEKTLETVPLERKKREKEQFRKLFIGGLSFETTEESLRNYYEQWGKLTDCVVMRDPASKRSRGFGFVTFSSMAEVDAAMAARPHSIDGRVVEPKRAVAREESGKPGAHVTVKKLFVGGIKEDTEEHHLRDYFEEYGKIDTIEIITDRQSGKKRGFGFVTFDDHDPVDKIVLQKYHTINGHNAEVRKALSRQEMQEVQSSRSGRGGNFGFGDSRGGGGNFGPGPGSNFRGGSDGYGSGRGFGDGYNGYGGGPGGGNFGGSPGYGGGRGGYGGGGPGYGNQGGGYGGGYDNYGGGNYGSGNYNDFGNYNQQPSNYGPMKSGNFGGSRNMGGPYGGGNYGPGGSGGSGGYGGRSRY
Chain of rGST APE1 NdeltaN33 (APE1NΔ33) (P27695 34-318, stated change not applied): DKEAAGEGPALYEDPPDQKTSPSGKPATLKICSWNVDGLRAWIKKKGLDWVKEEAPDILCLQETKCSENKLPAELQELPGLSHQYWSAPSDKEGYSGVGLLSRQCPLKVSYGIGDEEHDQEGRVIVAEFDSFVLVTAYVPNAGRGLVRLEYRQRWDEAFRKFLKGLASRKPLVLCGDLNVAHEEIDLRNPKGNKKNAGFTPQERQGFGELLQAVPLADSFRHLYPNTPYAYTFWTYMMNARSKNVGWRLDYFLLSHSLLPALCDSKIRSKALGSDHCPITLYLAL

B1: EXO-miR (ssRNA)
RNA: GGGGAGGUUAGGGAGGAGGGGGGUAGGCGCC
As to B1, the binding result in data set [1] and in data set [2] was “binds” in each case.

B2: hsa-miR-1246 (ssRNA)
RNA: AAUGGAUUUUUGGAGCAGG
Consider B2, for which the binding result was “binds” in data set [1], “no binding” in data set [3] and “binds” in data set [2].

B3: scrEXO-miR-1246 (ssRNA)
RNA: GUGUGUACGGAUUGUAGAA
As for B3, the binding result in data set [2] is recorded as “no binding”.
